# In the supplement of paper PMC6757056:
# ± gives the standard deviation of the averaged measurements.
# B1: library; a variant is named by its letters at N, in order (parent)
# chain: GCUGUCACCGGUGUAUUACCCUAGUGGUCGACCGGUCUGAUGAGUCUNNNNNNAGACGAAACAGC
# Columns and labels:
# [1] = variants of: B1; assay: normalized RNA/DNA level with ligand (relative to sTRSVctl = 100) (log10 (% of sTRSVctl)); ligand: hypoxanthine (xanthine aptamer); higher = less ribozyme self-cleavage, higher mRNA level; conditions: ligand concentration (+) RNA-Seq: 5 mM, HEK293T, reporter: mCherry (pCS4076), ligand present: yes
# Procedure, shortened: (§1)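 Library plasmids carrying ribozyme switches linked to mCherry, or to eGFP in some ligand experiments, were transfected into HEK293T at 4 µg per 6-well well, with any ligand added 1 h earlier. Seventy-two hours on, total RNA was extracted with EDTA and reverse-transcribed, amplified, barcoded and sequenced. RNA level was RNA over DNA reads normalized to a spiked-in non-cleaving sequence or to the top sequences, then scaled and log-transformed. The top set was 25 sequences, the transform was ×100 and log10, and sequences needed ≥100 DNA reads.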
# [2] = variants of: B1; assay: normalized RNA/DNA level without ligand (relative to sTRSVctl = 100) (log10 (% of sTRSVctl)); ligand: hypoxanthine (xanthine aptamer); higher = less ribozyme self-cleavage, higher mRNA level; conditions: HEK293T, reporter: mCherry (pCS4076), ligand present: no
# Procedure, shortened: as §1
Variant,normalized RNA/DNA level with ligand (log10) [1],normalized RNA/DNA level without ligand (log10) [2]
CUAGGC,1.94 ± 0.029,1.86 ± 0.086
CUAGGU,1.94 ± 0.028,1.88 ± 0.026
CUAUGA,1.95 ± 0.036,1.85 ± 0.042
CUAUGU,1.952 ± 0.0085,1.88 ± 0.019
CUAUGC,1.99 ± 0.044,1.88 ± 0.076
CUACCC,1.935 ± 0.014,1.88 ± 0.06
CUACCA,1.93 ± 0.053,1.82 ± 0.02
CUACCU,1.96 ± 0.092,1.9389 ± 0.0018
CUACCG,1.95 ± 0.025,1.8 ± 0.026
UGUUGA,1.9 ± 0.021,1.674 ± 0.0081
UGUUGG,1.91 ± 0.058,1.53 ± 0.04
UGUUGC,1.943 ± 0.015,1.87 ± 0.051
GUAAGU,1.94 ± 0.039,1.79 ± 0.019
AUAGUC,1.931 ± 0.016,1.923 ± 0.019
AUAGUU,1.9009 ± 0.0014,1.84 ± 0.055
UUAUAA,1.92 ± 0.0059,1.76 ± 0.041
UUAUAU,1.93 ± 0.027,1.85 ± 0.019
UUAUAG,1.89 ± 0.019,1.67 ± 0.04
CUAAUU,1.94 ± 0.043,1.869 ± 0.006
CUAAUA,1.87 ± 0.029,1.79 ± 0.026
AUAGCU,1.935 ± 0.018,1.83 ± 0.005
AUAGCC,1.936 ± 0.0032,1.82 ± 0.028
GUAGCA,1.8839 ± 9.6e-05,1.8 ± 0.023
GUAGCG,1.87 ± 0.02,1.535 ± 0.0049

Variant,normalized RNA/DNA level with ligand (log10) [1],normalized RNA/DNA level without ligand (log10) [2]
AUACUC,1.93 ± 0.05,1.96 ± 0.071
AUACUU,1.92 ± 0.022,1.859 ± 0.0037
AUCCGG,1.954 ± 0.0038,1.7 ± 0.051
GUAUUC,1.95 ± 0.073,1.931 ± 0.013
GUAUUA,1.92 ± 0.03,1.842 ± 0.017
GUAUUU,1.94 ± 0.079,1.859 ± 0.018
CUAACG,1.923 ± 0.017,1.88 ± 0.033
CUAACC,1.91 ± 0.051,1.83 ± 0.038
CUAACU,1.92 ± 0.033,1.869 ± 0.0023
CUAACA,1.88 ± 0.069,1.84 ± 0.031
CUCAUG,1.96 ± 0.042,1.91 ± 0.024
CUCAUU,1.99 ± 0.067,2.01 ± 0.08
AUCACG,1.933 ± 0.0027,1.554 ± 0.015
AUCACA,1.908 ± 0.0044,1.84 ± 0.023
AUCACC,1.98 ± 0.029,1.953 ± 0.011
AUCACU,1.98 ± 0.024,1.884 ± 0.0058
UUAGUA,1.939 ± 0.017,1.81 ± 0.039
UUAGUG,1.89 ± 0.048,1.67 ± 0.043
UUAGUC,1.98 ± 0.0064,1.976 ± 0.015
UUAGUU,1.952 ± 0.0013,1.85 ± 0.038
AUCAGC,1.94 ± 0.024,1.95 ± 0.047
UUAGGA,1.857 ± 0.012,1.66 ± 0.032
UUAGGU,1.92 ± 0.028,1.8 ± 0.031
GUCAUU,1.97 ± 0.056,1.916 ± 0.015

Variant,normalized RNA/DNA level with ligand (log10) [1],normalized RNA/DNA level without ligand (log10) [2]
GUCAUA,1.957 ± 0.013,1.806 ± 0.013
GUAAUA,1.878 ± 0.0069,1.823 ± 0.0023
AGUUUC,1.92 ± 0.033,1.93 ± 0.033
AGUUUU,1.97 ± 0.077,1.947 ± 0.013
AGUUUG,1.89 ± 0.077,1.55 ± 0.035
CUAUCA,1.92 ± 0.041,1.86 ± 0.029
CUAUCG,1.956 ± 0.016,1.94 ± 0.033
CUAUCC,1.93 ± 0.062,1.92 ± 0.049
CUAUCU,1.9 ± 0.075,1.89 ± 0.042
UUAUCU,1.977 ± 0.014,1.86 ± 0.026
UUAUCC,1.957 ± 0.016,1.929 ± 0.013
UUAUCG,1.905 ± 0.01,1.78 ± 0.084
UUAUCA,1.953 ± 0.0031,1.83 ± 0.024
CUACUG,1.942 ± 0.0056,1.925 ± 0.0027
CUACUU,1.99 ± 0.028,1.83 ± 0.026
CUACUC,2.039 ± 0.013,1.95 ± 0.025
GUCCCA,1.94 ± 0.02,1.9 ± 0.041
GUCCCU,1.934 ± 0.016,1.92 ± 0.05
GUCCCC,1.907 ± 0.017,1.825 ± 0.01
UUAAAC,1.915 ± 0.008,1.791 ± 0.01
CGUUUU,1.92 ± 0.073,1.833 ± 0.014
CGUUUA,1.89 ± 0.032,1.68 ± 0.013
CGUUUG,1.96 ± 0.067,1.864 ± 0.0052
CUACGU,1.98 ± 0.067,1.9 ± 0.027

Variant,normalized RNA/DNA level with ligand (log10) [1],normalized RNA/DNA level without ligand (log10) [2]
CUACGA,1.97 ± 0.034,1.87 ± 0.034
CUACGC,1.961 ± 0.011,1.913 ± 0.007
CUACGG,1.93 ± 0.047,1.98 ± 0.071
CUCCCA,1.991 ± 0.0032,1.87 ± 0.046
CUCCCU,1.94 ± 0.039,1.97 ± 0.043
AUAUAU,1.9 ± 0.028,1.79 ± 0.045
GUAACU,1.94 ± 0.03,1.878 ± 0.005
GUAACA,1.89 ± 0.0062,1.8412 ± 0.00038
GUAACC,1.9577 ± 0.00079,1.88 ± 0.089
CGUUGC,1.96 ± 0.1,1.91 ± 0.088
CGUUGU,1.98 ± 0.05,1.89 ± 0.059
CUCCAG,1.89 ± 0.068,1.73 ± 0.057
CUCCAC,1.92 ± 0.02,1.92 ± 0.036
CUCCAA,1.91 ± 0.047,1.869 ± 0.01
GUCCAU,1.95 ± 0.028,1.852 ± 0.0035
CUAUUU,2 ± 0.021,1.93 ± 0.053
UUACAA,1.96 ± 0.022,1.796 ± 0.012
UUACAG,1.92 ± 0.029,1.63 ± 0.036
AUACGU,1.91 ± 0.032,1.84 ± 0.042
AUACGA,1.868 ± 0.018,1.7 ± 0.025
CUCACG,1.93 ± 0.024,1.913 ± 0.0027
CUCACA,1.911 ± 0.016,1.83 ± 0.021
UUAACU,1.932 ± 0.017,1.841 ± 0.012
UUAACA,1.93 ± 0.059,1.9 ± 0.0046

Variant,normalized RNA/DNA level with ligand (log10) [1],normalized RNA/DNA level without ligand (log10) [2]
UUAACC,1.941 ± 0.0056,1.921 ± 0.0067
GUAGAU,1.87 ± 0.092,1.758 ± 0.00084
GUAGAC,1.89 ± 0.041,1.69 ± 0.025
CUAUAA,1.9 ± 0.037,1.8 ± 0.0052
CUAUAG,1.93 ± 0.019,1.69 ± 0.068
CUAUAC,1.954 ± 0.014,1.835 ± 0.0098
CUAUAU,1.951 ± 0.014,1.81 ± 0.038
UUCCAG,1.9 ± 0.051,1.68 ± 0.064
UUCCAU,1.97 ± 0.074,1.882 ± 0.0027
UUCCAA,1.92 ± 0.097,1.8417 ± 0.0007
GUAGGA,1.892 ± 0.002,1.66 ± 0.033
GUCAAC,1.95 ± 0.02,1.748 ± 0.0031
GUCAAU,1.925 ± 0.015,1.8 ± 0.054
GUACCC,1.9 ± 0.045,1.8666 ± 0.0018
GUACCU,1.985 ± 0.016,1.9131 ± 0.00047
AUACAU,1.91 ± 0.03,1.794 ± 0.017
UUCAGG,1.92 ± 0.025,1.79 ± 0.053
UUCAGC,1.94 ± 0.026,1.93 ± 0.02
UUCAGU,1.947 ± 0.013,1.83 ± 0.036
UUCAGA,1.96 ± 0.037,1.823 ± 0.0059
